Literature values, collected in paper PMC6596353.

Biological target: ST2 (Homo sapiens) (UniProt Q01638)
Chain of UniProt Q01638 (Q01638 19-556): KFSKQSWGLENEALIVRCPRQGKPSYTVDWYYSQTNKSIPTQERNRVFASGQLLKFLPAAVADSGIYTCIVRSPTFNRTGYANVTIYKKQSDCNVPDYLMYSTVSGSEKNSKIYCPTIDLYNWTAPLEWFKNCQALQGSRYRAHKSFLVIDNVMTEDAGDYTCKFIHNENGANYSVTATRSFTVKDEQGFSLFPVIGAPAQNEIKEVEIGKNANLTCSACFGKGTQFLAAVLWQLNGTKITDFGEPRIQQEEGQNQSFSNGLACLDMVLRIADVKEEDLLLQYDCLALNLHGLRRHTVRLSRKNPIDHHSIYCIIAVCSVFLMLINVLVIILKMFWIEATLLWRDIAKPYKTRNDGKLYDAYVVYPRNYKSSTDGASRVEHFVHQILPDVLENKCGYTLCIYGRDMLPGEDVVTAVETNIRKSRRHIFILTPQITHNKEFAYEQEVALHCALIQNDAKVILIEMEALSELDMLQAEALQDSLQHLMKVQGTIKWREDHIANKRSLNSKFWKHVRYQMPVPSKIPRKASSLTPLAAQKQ

Kd: 0.45 nM
Substance: IL-33 (from UniProt O95760)
